Assay results: the supplement of paper PMC7877785
± gives the uncertainty stated by the source.

Experiment: self-splicing fitness, log relative to wild type (ln ratio); higher = more splicing; Tetrahymena group I intron in knt gene, E. coli kanamycin selection, DiMSum; sequences stand for … in CUCUCU…GGAGGGAAAAGUUAUCAGGCAUGCACCUGGUAGCUAGUCUUUAAACCAAUAGAUUGCAUCGGUUUAAAAGGCAAGACCGUCAAAUUGCGGGAAAGGGGUCAACAGCCGUUCAGUACCAAGUCUCAGGGGAAACUUUGAGAUGGCCUUGCAAAGGGUAUGGUAAUAAGCUGACGGACAUGGUCCUAACCACGCAGCCAAGUCCUAAGUCAACAGAUCUUCUGUUGAUAUGGAUGCAGUUCACAGACUAAAUGUCGGUCGGGGAAGAUGUAUUCUUCUCAUAAGAUAUAGUCGGACCUCUCCUUAAUGGGAGCUAGCGGAUGAAGUGAUGCAACACUGGAGCCGCUGGGAACUAAUUUGUAUGCGAAAGUAUAUUGAUUAGUUUUGGAGUACUCGUGGUCG
Procedure, shortened: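 Pooled colonies went to amplicon sequencing on an Illumina HiSeq 2500 after six replicate transformations. The plates were LB agar with 100 μg/mL carbenicillin, 50 μM IPTG and 0.2% rhamnose, with or without 25 μg/mL kanamycin, incubated overnight at 37°C or 30°C. The E. coli BL21(DE3) library had all eight P1ex-region intron nucleotides randomised, the intron placed in the knt kanamycin-resistance gene on pET-22b(+). DiMSum fitness is the error-weighted combination of replicate fold changes, kanamycin against none, normalised to wild type.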

Sequence | self-splicing fitness (ln) (30 °C) | self-splicing fitness (ln) (37 °C)
UCCCAGCAAUAUUACGCAAA | -2.54 ± 0.18 | -0.641 ± 0.14
GAGAAGCAAUAUUACGCCAA | -0.505 ± 0.27 | -2.17 ± 0.22
UUUGAGCAAUAUUACGGGGC |  | -2.07 ± 0.45
GGACAGCAAUAUUACGCGUU | -3.68 ± 0.16 | -2.62 ± 0.2
AAUCAGCAAUAUUACGCAGC | -1.36 ± 0.15 | -0.207 ± 0.14
GAUAAGCAAUAUUACGUCCA | -1.72 ± 0.15 | -0.215 ± 0.17
ACCGAGCAAUAUUACGUACU | -2.31 ± 0.13 | -0.966 ± 0.14
GGAGAGCAAUAUUACGGAGG | -2.93 ± 0.48 | -0.819 ± 0.23
GGGCAGCAAUAUUACGCAUU | -0.0216 ± 0.078 | -0.129 ± 0.11
UCGCAGCAAUAUUACGUAAA | -1.69 ± 0.094 | -1.12 ± 0.12
ACGAAGCAAUAUUACGUAAA | -2.9 ± 0.18 | -1.45 ± 0.19
CCCCAGCAAUAUUACGAAGA | -2.91 ± 0.24 | -2.52 ± 0.26
ACAAAGCAAUAUUACGUCCG | -0.802 ± 0.049 | -0.466 ± 0.063
GCCCAGCAAUAUUACGUUAC | -2.2 ± 0.083 | -0.962 ± 0.087
UUUAAGCAAUAUUACGCACG | -0.565 ± 0.16 | -0.685 ± 0.22
GAUGAGCAAUAUUACGUCGU | -2.4 ± 0.15 | -2.13 ± 0.17
UGAUAGCAAUAUUACGCUGC | -3.67 ± 0.31 | -2.61 ± 0.48
GGAAAGCAAUAUUACGUUUC | -3.04 ± 0.21 | -2.5 ± 0.28
CACCAGCAAUAUUACGCGUG | -3.74 ± 0.16 | -2.44 ± 0.13
GAGUAGCAAUAUUACGAUUC | -0.85 ± 0.18 | -0.0237 ± 0.24
GGGUAGCAAUAUUACGCGCG | -0.435 ± 0.11 | 0.558 ± 0.15
GGUAAGCAAUAUUACGUAUC | -3.54 ± 0.23 | -1.39 ± 0.45
AACAAGCAAUAUUACGACUA | -0.0433 ± 0.095 | 0.555 ± 0.1
GCGUAGCAAUAUUACGGUGA | -1.73 ± 0.12 | -0.187 ± 0.12
GACGAGCAAUAUUACGAGCG | -1.88 ± 0.23 | 

Sequence | self-splicing fitness (ln) (30 °C) | self-splicing fitness (ln) (37 °C)
UGGAAGCAAUAUUACGUUUC | -2.56 ± 0.24 | -2.82 ± 0.38
UUAAAGCAAUAUUACGAACC | -1.34 ± 0.18 | -0.963 ± 0.23
CGAGAGCAAUAUUACGAGGC | -1.83 ± 0.24 | -0.565 ± 0.48
CCCCAGCAAUAUUACGCCGG | -4.29 ± 0.21 | -1.88 ± 0.16
GCCUAGCAAUAUUACGAGAU | -1.88 ± 0.12 | -0.45 ± 0.11
AUCGAGCAAUAUUACGGGUG | -3.28 ± 0.14 | -1.89 ± 0.12
GGUAAGCAAUAUUACGCCGA | -2.95 ± 0.43 | -0.926 ± 0.25
UUACAGCAAUAUUACGAAGG | -3.54 ± 0.31 | -1.3 ± 0.23
UGCAAGCAAUAUUACGAGAU | -3.16 ± 0.24 | -3.02 ± 0.35
AGGAAGCAAUAUUACGUGGG | -4.36 ± 0.31 | -3.38 ± 0.23
UUAUAGCAAUAUUACGUAUU |  | -2.08 ± 0.25
GCUGAGCAAUAUUACGGAAC | -2.25 ± 0.3 | -0.857 ± 0.3
GUUAAGCAAUAUUACGGGUU | -3.44 ± 0.3 | -2.98 ± 0.23
AAAGAGCAAUAUUACGGUUU | -2.16 ± 0.11 | -1.06 ± 0.12
CUGCAGCAAUAUUACGAAUG | -0.593 ± 0.066 | -0.0469 ± 0.081
CAAAAGCAAUAUUACGAACA | -1.95 ± 0.14 | -0.613 ± 0.13
AGGGAGCAAUAUUACGCAAU |  | -1.7 ± 0.47
AAUGAGCAAUAUUACGUUCC | -2.71 ± 0.17 | -1.43 ± 0.2
GUCAAGCAAUAUUACGUGCG | -2.29 ± 0.1 | -0.638 ± 0.1
CGAGAGCAAUAUUACGUGUC | -3.05 ± 0.14 | -2.17 ± 0.16
ACAGAGCAAUAUUACGCUGU | -3.87 ± 0.42 | -2.69 ± 0.29
GCCGAGCAAUAUUACGAUGC | -0.994 ± 0.088 | -0.352 ± 0.096
GUUGAGCAAUAUUACGACUA | -2.4 ± 0.18 | -2.85 ± 0.22
AACCAGCAAUAUUACGAGCU | -2.52 ± 0.087 | -1.82 ± 0.1
UCUGAGCAAUAUUACGGCGC | -3.06 ± 0.29 | -2.02 ± 0.32

Sequence | self-splicing fitness (ln) (30 °C) | self-splicing fitness (ln) (37 °C)
GCACAGCAAUAUUACGGAGA | -2.85 ± 0.12 | -2.16 ± 0.13
GCCUAGCAAUAUUACGCAUA | -0.13 ± 0.18 | -0.428 ± 0.15
CACGAGCAAUAUUACGGGGG | -3.04 ± 0.19 | -2.52 ± 0.25
UUACAGCAAUAUUACGUGAG | -0.626 ± 0.055 | 0.12 ± 0.092
ACGCAGCAAUAUUACGCGAU | -3.38 ± 0.16 | -2.22 ± 0.16
CCGGAGCAAUAUUACGAAUU |  | -3.26 ± 0.3
GGCAAGCAAUAUUACGGACC | -1.77 ± 0.18 | -0.606 ± 0.2
UUAGAGCAAUAUUACGGUUG | -1.98 ± 0.15 | -1.16 ± 0.15
ACCCAGCAAUAUUACGGAGU | -3.7 ± 0.14 | -1.8 ± 0.1
CGUUAGCAAUAUUACGGGAG | -3.32 ± 0.2 | -2.39 ± 0.17
GCCCAGCAAUAUUACGUACU | -0.0223 ± 0.1 | -0.765 ± 0.15
GGUUAGCAAUAUUACGCCGU | -1.91 ± 0.22 | -1.03 ± 0.21
UUCUAGCAAUAUUACGGGAU | -3.72 ± 0.29 | -2.37 ± 0.3
CGCGAGCAAUAUUACGAGGA | -3.16 ± 0.22 | -2.16 ± 0.18
AGCAAGCAAUAUUACGCACC | -0.646 ± 0.14 | 0.533 ± 0.18
UGGCAGCAAUAUUACGUUUA | -0.478 ± 0.084 | 0.426 ± 0.096
AGGAAGCAAUAUUACGACAA | -1.66 ± 0.12 | -1.49 ± 0.14
UACUAGCAAUAUUACGAGGG | -2.3 ± 0.13 | -2.52 ± 0.17
ACGAAGCAAUAUUACGCGGG | -1.62 ± 0.086 | -0.782 ± 0.1
CGCCAGCAAUAUUACGUAAU | -2.67 ± 0.12 | -1.71 ± 0.15
CGUAAGCAAUAUUACGAGGA |  | -1.75 ± 0.33
GGGGAGCAAUAUUACGCGGU | -1.99 ± 0.27 | 
CGGGAGCAAUAUUACGUUCU | -3.58 ± 0.18 | -1.49 ± 0.19
ACAUAGCAAUAUUACGUCCU | -0.372 ± 0.11 | -0.297 ± 0.12
AUAGAGCAAUAUUACGCACC | -1.1 ± 0.35 | -1.41 ± 0.44

Sequence | self-splicing fitness (ln) (30 °C) | self-splicing fitness (ln) (37 °C)
UUCGAGCAAUAUUACGUUGA | -2.77 ± 0.26 | -2 ± 0.21
AGCAAGCAAUAUUACGCAGU | -3.01 ± 0.18 | -1.28 ± 0.14
UGAGAGCAAUAUUACGCGUG | -2.82 ± 0.24 | 0.21 ± 0.21
AGGCAGCAAUAUUACGCCGU | -1.92 ± 0.19 | -0.237 ± 0.17
AAACAGCAAUAUUACGGAUU | -1.67 ± 0.068 | -0.362 ± 0.079
GCGAAGCAAUAUUACGCGAC | -1.88 ± 0.17 | -1.1 ± 0.19
GAUGAGCAAUAUUACGAAGG | -1.14 ± 0.26 | 
GAUAAGCAAUAUUACGCCGG | -1.66 ± 0.2 | -1.06 ± 0.14
GGUAAGCAAUAUUACGCUGU | -3.25 ± 0.29 | -1.65 ± 0.23
UUGGAGCAAUAUUACGCUCA | -1.16 ± 0.15 | -1.53 ± 0.24
GUUCAGCAAUAUUACGAGAU | -2.51 ± 0.16 | -0.359 ± 0.12
AUGGAGCAAUAUUACGGUGC | -2.99 ± 0.25 | 
CUCCAGCAAUAUUACGUUGA | -2.56 ± 0.18 | -2.87 ± 0.19
UGCCAGCAAUAUUACGAUGA | -1.99 ± 0.14 | -0.997 ± 0.12
AUGUAGCAAUAUUACGGAGC | -4.16 ± 0.16 | -3.02 ± 0.15
GCCGAGCAAUAUUACGAAAC | -2.15 ± 0.22 | -1.13 ± 0.17
UGCAAGCAAUAUUACGGCAG | -0.827 ± 0.078 | -0.0588 ± 0.12
CAGUAGCAAUAUUACGCGGG | -3.1 ± 0.16 | -1.91 ± 0.17
ACUCAGCAAUAUUACGGUCA | -1.11 ± 0.11 | -1.05 ± 0.1
AUAGAGCAAUAUUACGUGCC | -3.44 ± 0.41 | -1.69 ± 0.4
CCAUAGCAAUAUUACGGGAC |  | -2.82 ± 0.28
GCAAAGCAAUAUUACGUUGC | -3.51 ± 0.21 | -1.88 ± 0.21
UGGGAGCAAUAUUACGGAUG | -3.69 ± 0.39 | -1.14 ± 0.26
